Measured values: patent publication US20160030629A1, “PEPTIDE-ALBUMIN HYDROGEL PROPERTIES AND ITS APPLICATIONS” (KANSAS STATE UNIVERSITY RESEARCH FOUNDATION, priority 2012, published 2016)

Legend:
Format in all cases: physicochemical
[1] = pH of synthesized peptide in water solution
Excerpt: Peptides were synthesized on a CEM Liberty microwave peptide synthesizer (CEM Corporation, Matthews, N.C.) based on the automated base-labile 9-fluorenylmethoxycarbonyl (Fmoc) strategy with Fmoc-protected amino acids (EMD Biosciences, San Diego, Calif.). Peptides were cleaved with 95% trifluoroacetic acid (Sigma-Aldrich, Milwaukee, Wis.), 2.5% triisopropylsilane (Sigma), and 2.5% deionized water. The crude peptides were washed three times with anhydrous ether (Fisher Biotech, Fair Lawn, N.J.). After that, peptides were dissolved in acetonitrile and distilled (DI) water (50/50 v/v). The peptide solution was frozen in a −80° C. refrigerator overnight and then was freeze-dried for 48 hours by using the Labconco freeze dry system (Labconco, Kansas City, Mo.). The pH value of the peptide in water solution was 3.6. Molecular weight of the synthesized peptide was confirmed by matrix-assisted laser desorption/ionization time-of-flight mass spectroscopy on an Ultraflex II instrument (Bruker Daltronics, Billerica, Mass.). The peptide purity was confirmed by a Beckman System Gold high performance liquid chromatography (HPLC, Beckman Coulter, Inc., Fullerton, Calif.) on a phenomenex synergi 4μ Hydro-RP column (Phenomenex, Inc., Torance, Calif.) with the following gradient: 10-90% B in 20 min (A: 99.9% H2O, 0.1% TFA; B: 90% acetonitrile, 9.9% H2O, 0.1% TFA).

[2] = h9e hydrogel formation in cell culture media, serum/albumin dependence
Excerpt: This phenomenon was further exploited in other cell culture medium like Dulbecco's modified Eagle's medium (DMEM), Roswell Park Memorial Institute medium (RPMI), and Leibovitz medium (L-15). […] After screening the abundant serum compounds, we concentrated on one of the most abundant proteins in serum, albumin, which contains charged groups and several surface binding domains.

[3] = Rheology (storage modulus, hydrogel forming rate) of h9e/BSA mixtures; conditions: 3 mM h9e solution without BSA, 30 min test
Procedure: BSA and HSA were dissolved in water with 5 wt % concentration. The peptide solution and albumin solution were then mixed at different ratios for final mixtures of 1, 2, 3 mM h9e peptide with albumin from 0.1 to 5 wt %.
The storage (G′) and loss (G″) moduli of h9e hydrogels with different peptide/albumin ratios were measured on a rheometer system C-VOR 150 (Malvern instruments, Malvern, Worcestershire WR141XZ, United Kingdom) with a 20 mm diameter parallel plate test system. All rheological tests were carried out at 37° C. […]

[4] = Comparison of material properties of different 3D cell culture hydrogels
Excerpt: In addition, for in vitro 3D cell culture, cell encapsulation and isolation are two critical steps to introduce 3D spatial support for cell growth and to recover embedded cells from the scaffold matrix for downstream studies respectively. For a convenient, effective, and safe encapsulation, cells should be added simultaneously with the initialization of hydrogelation. Therefore, mild and cyto-compatible hydrogel-forming conditions are preferred, to ensure that cells survive comfortably during gel formation. However, the sol-gel transformation of currently used peptide/protein hydrogels (i.e., puramatrix gel, hydromatix peptide hydrogel, and matrigel) is triggered by adjusting pH or temperature (Table 1).

[5] = Stability of h9e-2i hydrogel and of h9e peptide solution
Procedure: The stability of h9e-2i medium hydrogel was tested. A plastic tray was placed on the bottom of the well plate. Next, 1 wt % h9e solution was mixed with 2i medium at 1:1 (v:v) ratio in a centrifuge tube and then transferred into the well plate. There was 500 μl peptide hydrogel for each well. The well plate was then placed in an incubator for 1 hour. After hydrogel was stable, another 500 μl of 2i medium was slowly added on the top of hydrogel. The top medium was replaced every other day. For mechanical testing, the top 2i medium was removed and hydrogel was transferred to a dynamic rheometer using the tray. The stability of the peptide solution was also tested using 1 wt % peptide solution stored in 4° C. refrigerator for up to 24 days. Part of the peptide solution was taken out and mixed with 2i medium with 1:1 (v:v) ratio on days 1, 6, 18 and 24.

Question: For “FLIVIGSIIGPGGDGPGGD (Derivative of spider flagelliform silk protein and a trans-membrane segment of subunit IV in the dihydropyridine sensitive human muscle L-type calcium channel) [h9e, 19 unit amphiphilic self-assembling peptide]”, which “pH value of the peptide in water solution” value [1] is on record?
Answer: 3.6

Question: And the “solution to hydrogel transition” value ([2]; MEM without serum)?
Answer: did not stimulate this solution to hydrogel transitions effectively

Question: What about the “time to transform into a self-supporting hydrogel matrix” value ([2]; h9e peptide solution added into MEM with 10% serum) of the same sequence?
Answer: ≤ 1 min

Question: What about the hydrogel formation ([2]; serum-free N2B27 supplemented 2i medium with 1 wt % albumin) of the same sequence?
Answer: hydrogel formation

Question: What about the rheological behaviour [3] of the same sequence?
Answer: performed as Newtonian liquid

Question: And the Porosity [4]?
Answer: 50-200 nm

Question: And the “Solution pH” value [4]?
Answer: Neutral

Question: And the “hydrogel formation with 2i medium after storage of solution” value ([5]; 1 wt % h9e solution stored at 4° C. for 24 days)?
Answer: could still from a hydrogel

Question: And the “stability of h9e solution” value ([5]; recent study, no details)?
Answer: exceed 2 months
